T1: rsDR5 (recombinant human DR5 extracellular domain protein) (UniProt O14763 56-183)
T1 chain: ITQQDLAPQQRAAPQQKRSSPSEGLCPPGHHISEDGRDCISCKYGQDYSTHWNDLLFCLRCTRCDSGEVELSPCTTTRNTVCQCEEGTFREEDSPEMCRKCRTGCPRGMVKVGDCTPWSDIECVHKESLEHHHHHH


Target: T1, rsDR5 (recombinant human DR5 …)
Assay: Biacore

Row | Binder | Kd [nM]
1 | hB273_H2-2/hB273_L1 (antibody) heavy: not shown light: DIVMTQSPLSLPVTPGEPASISCRSSQSLVHSNGNTYLHWYLQKPGQSPQLLIYKVSNRFSGVPDRFSGSGSGTDFTLKISRVEAEDVGVYYCSQSTHVPWTFGPGTKVEIKRTVAAPSVFIFPPSDEQLKSGTASVVCLLNNFYPREAKVQWKVDNALQSGNSQESVTEQDSKDSTYSLSSTLTLSKADYEKHKVYACEVTHQGLSSPVTKSFNRGEC | 2.14
2 | hB273_H2-5/hB273_L1 (antibody, V domains shown) VH: QVQLVQSGAEVKKPGASVKVSCKASGYSFIGYFMNWMKQSPGKSLEWIGRFNPYNGDTFYNQKFKGKATLTVDKSTSTAYMELSSLRSEDTAVYFCGRSAYYFDSGGYFDYWGQGTLVTVSS VL: DIVMTQSPLSLPVTPGEPASISCRSSQSLVHSNGNTYLHWYLQKPGQSPQLLIYKVSNRFSGVPDRFSGSGSGTDFTLKISRVEAEDVGVYYCSQSTHVPWTFGPGTKVEIKR | 1.38
3 | hB273_H2-4/hB273_L1 (antibody, V domains shown) VH: QVQLVQSGAEVKKPGASVKVSCKASGYSFIGYFMNWMKQSPGMSLEWIGRFNPYNGDTFYNQKFKGKATLTVDKSTSTAYMELSSLRSEDTAVYFCGRSAYYFDSGGYFDYWGQGTLVTVSS VL: DIVMTQSPLSLPVTPGEPASISCRSSQSLVHSNGNTYLHWYLQKPGQSPQLLIYKVSNRFSGVPDRFSGSGSGTDFTLKISRVEAEDVGVYYCSQSTHVPWTFGPGTKVEIKR | 1.55
4 | hB273_H2-3/hB273_L1 (antibody) heavy: not shown light: DIVMTQSPLSLPVTPGEPASISCRSSQSLVHSNGNTYLHWYLQKPGQSPQLLIYKVSNRFSGVPDRFSGSGSGTDFTLKISRVEAEDVGVYYCSQSTHVPWTFGPGTKVEIKRTVAAPSVFIFPPSDEQLKSGTASVVCLLNNFYPREAKVQWKVDNALQSGNSQESVTEQDSKDSTYSLSSTLTLSKADYEKHKVYACEVTHQGLSSPVTKSFNRGEC | 2.12
5 | hB273_H1-1/hB273_L1 (antibody, V domains shown) VH: QVQLVQSGAEVKKPGASVKVSCKASGYSFIGYFMNWMRQAPGMGLEWMGRFNPYNGDTFYNQKFKGRVTLTVDKSTSTAYMELSSLRSEDTAVYFCGRSAYYFDSGGYFDYWGQGTLVTVSS VL: DIVMTQSPLSLPVTPGEPASISCRSSQSLVHSNGNTYLHWYLQKPGQSPQLLIYKVSNRFSGVPDRFSGSGSGTDFTLKISRVEAEDVGVYYCSQSTHVPWTFGPGTKVEIKR | 1.83
6 | hB273_H2-1/hB273_L1 (antibody) heavy: not shown light: DIVMTQSPLSLPVTPGEPASISCRSSQSLVHSNGNTYLHWYLQKPGQSPQLLIYKVSNRFSGVPDRFSGSGSGTDFTLKISRVEAEDVGVYYCSQSTHVPWTFGPGTKVEIKRTVAAPSVFIFPPSDEQLKSGTASVVCLLNNFYPREAKVQWKVDNALQSGNSQESVTEQDSKDSTYSLSSTLTLSKADYEKHKVYACEVTHQGLSSPVTKSFNRGEC | 1.99

Target: T1, rsDR5 (recombinant human DR5 …)
Assay: Biacore
Remark: another data set of the same source

Row | Binder | Kd [nM]
7 | hB273_H2-1-NE/hB273_L1-NE (antibody, V domains shown) VH: EVQLVQSGAEVKKPGASVKVSCKASGYSFIGYFMNWMKQSPGMSLEWIGRFNPYNEDTFYNQKFKGKATLTVDKSTSTAYMELSSLRSEDTAVYFCARSAYYFDSGGYFDYWGQGTLVTVSS VL: DIVMTQSPLSLPVTPGEPASISCRSSQSLVHSNENTYLHWYLQKPGQSPQLLIYKVSNRFSGVPDRFSGSGSGTDFTLKISRVEAEDVGVYYCSQSTHVPWTFGPGTKVEIKR | 2.02
8 | hB273_H2-1-NE/hB273_L1-NL (antibody, V domains shown) VH: EVQLVQSGAEVKKPGASVKVSCKASGYSFIGYFMNWMKQSPGMSLEWIGRFNPYNEDTFYNQKFKGKATLTVDKSTSTAYMELSSLRSEDTAVYFCARSAYYFDSGGYFDYWGQGTLVTVSS VL: DIVMTQSPLSLPVTPGEPASISCRSSQSLVHSNLNTYLHWYLQKPGQSPQLLIYKVSNRFSGVPDRFSGSGSGTDFTLKISRVEAEDVGVYYCSQSTHVPWTFGPGTKVEIKR | 1.76
9 | hB273_H2-1-NE/hB273_L1-NF (antibody, V domains shown) VH: EVQLVQSGAEVKKPGASVKVSCKASGYSFIGYFMNWMKQSPGMSLEWIGRFNPYNEDTFYNQKFKGKATLTVDKSTSTAYMELSSLRSEDTAVYFCARSAYYFDSGGYFDYWGQGTLVTVSS VL: DIVMTQSPLSLPVTPGEPASISCRSSQSLVHSNFNTYLHWYLQKPGQSPQLLIYKVSNRFSGVPDRFSGSGSGTDFTLKISRVEAEDVGVYYCSQSTHVPWTFGPGTKVEIKR | 1.76

Target: T1, rsDR5 (recombinant human DR5 …)
Assay: Biacore
Remark: another data set of the same source

Row | Binder | Kd [nM]
10 | hB273_H1/hB273_L2 (antibody) heavy: not shown light: DVVMTQTPLSLPVSLGEPASISCRSSQSLVHSNGNTYLHWYLQKPGQSPKLLIYKVSNRFSGVPDRFSGSGSGTDFTLKISRVEAEDVGVYFCSQSTHVPWTFGPGTKVEIKRTVAAPSVFIFPPSDEQLKSGTASVVCLLNNFYPREAKVQWKVDNALQSGNSQESVTEQDSKDSTYSLSSTLTLSKADYEKHKVYACEVTHQGLSSPVTKSFNRGEC | 6.53
11 | hB273_H1/hB273_L1 (antibody, V domains shown) VH: QVQLVQSGAEVKKPGASVKVSCKASGYSFIGYFMNWVRQAPGMGLEWMGRFNPYNGDTFYNQKFKGRVTLTVDKSTSTAYMELSSLRSEDTAVYYCARSAYYFDSGGYFDYWGQGTLVTVSS VL: DIVMTQSPLSLPVTPGEPASISCRSSQSLVHSNGNTYLHWYLQKPGQSPQLLIYKVSNRFSGVPDRFSGSGSGTDFTLKISRVEAEDVGVYYCSQSTHVPWTFGPGTKVEIKR | 5.45
12 | hB273_H2/hB273_L2 (antibody) heavy: not shown light: DVVMTQTPLSLPVSLGEPASISCRSSQSLVHSNGNTYLHWYLQKPGQSPKLLIYKVSNRFSGVPDRFSGSGSGTDFTLKISRVEAEDVGVYFCSQSTHVPWTFGPGTKVEIKRTVAAPSVFIFPPSDEQLKSGTASVVCLLNNFYPREAKVQWKVDNALQSGNSQESVTEQDSKDSTYSLSSTLTLSKADYEKHKVYACEVTHQGLSSPVTKSFNRGEC | 4.47
13 | hB273_H1/hB273_L3 (antibody) heavy: not shown light: DVVMTQTPLSLPVSLGEPASISCRSSQSLVHSNGNTYLHWYLQKPGQSPKLLIYKVSNRFSGVPDRFSGSGSGTDFTLKISRVEAEDVGVYFCSQSTHVPWTFGGGTKVEIKRTVAAPSVFIFPPSDEQLKSGTASVVCLLNNFYPREAKVQWKVDNALQSGNSQESVTEQDSKDSTYSLSSTLTLSKADYEKHKVYACEVTHQGLSSPVTKSFNRGEC | 6.04
14 | hB273_H3/hB273_L3 (antibody) heavy: not shown light: DVVMTQTPLSLPVSLGEPASISCRSSQSLVHSNGNTYLHWYLQKPGQSPKLLIYKVSNRFSGVPDRFSGSGSGTDFTLKISRVEAEDVGVYFCSQSTHVPWTFGGGTKVEIKRTVAAPSVFIFPPSDEQLKSGTASVVCLLNNFYPREAKVQWKVDNALQSGNSQESVTEQDSKDSTYSLSSTLTLSKADYEKHKVYACEVTHQGLSSPVTKSFNRGEC | 2.15
15 | hB273_H3/hB273_L1 (antibody, V domains shown) VH: EVQLVQSGAEVKKPGASVKVSCKASGYSFIGYFMNWMKQSPGKSLEWIGRFNPYNGDTFYNQKFKGKATLTVDKSTSTAHMELSSLRSEDTAVYFCGRSAYYFDSGGYFDYWGQGTLVTVSS VL: DIVMTQSPLSLPVTPGEPASISCRSSQSLVHSNGNTYLHWYLQKPGQSPQLLIYKVSNRFSGVPDRFSGSGSGTDFTLKISRVEAEDVGVYYCSQSTHVPWTFGPGTKVEIKR | 2.4
16 | hB273_H2/hB273_L1 (antibody) heavy: not shown light: DIVMTQSPLSLPVTPGEPASISCRSSQSLVHSNGNTYLHWYLQKPGQSPQLLIYKVSNRFSGVPDRFSGSGSGTDFTLKISRVEAEDVGVYYCSQSTHVPWTFGPGTKVEIKRTVAAPSVFIFPPSDEQLKSGTASVVCLLNNFYPREAKVQWKVDNALQSGNSQESVTEQDSKDSTYSLSSTLTLSKADYEKHKVYACEVTHQGLSSPVTKSFNRGEC | 4.36
17 | hB273_H3/hB273_L2 (antibody) heavy: not shown light: DVVMTQTPLSLPVSLGEPASISCRSSQSLVHSNGNTYLHWYLQKPGQSPKLLIYKVSNRFSGVPDRFSGSGSGTDFTLKISRVEAEDVGVYFCSQSTHVPWTFGPGTKVEIKRTVAAPSVFIFPPSDEQLKSGTASVVCLLNNFYPREAKVQWKVDNALQSGNSQESVTEQDSKDSTYSLSSTLTLSKADYEKHKVYACEVTHQGLSSPVTKSFNRGEC | 2.19
18 | hB273_H2/hB273_L3 (antibody) heavy: not shown light: DVVMTQTPLSLPVSLGEPASISCRSSQSLVHSNGNTYLHWYLQKPGQSPKLLIYKVSNRFSGVPDRFSGSGSGTDFTLKISRVEAEDVGVYFCSQSTHVPWTFGGGTKVEIKRTVAAPSVFIFPPSDEQLKSGTASVVCLLNNFYPREAKVQWKVDNALQSGNSQESVTEQDSKDSTYSLSSTLTLSKADYEKHKVYACEVTHQGLSSPVTKSFNRGEC | 5.4

From US20140004120A1 (published 2014)
